Key:
[1] = molecular target: T1, animal free recombinant human IL-6 (PeproTech Inc.) (human, UniProt P05231 30-212); experiment: ELISA, antigen coated at 5 ug/mL, HRP anti-human IgG Fc detection
T1 construct: Bought reagent, coated on the ELISA plate; also called interleukin-6
Description: (§1) The affinity of each antibody for an antigen was measured by ELISA method. As antigens of each antibody, human CD20/MS4A1 full-length protein, His tag (HEK293) (ACROBiosystems Inc.), recombinant human ErbB2/Her2 Fc chimera (R&D Systems Inc.), chicken egg white-derived lysozyme (Sigma-Aldrich), animal free recombinant human IL-6 (PeproTech Inc.) and interleukin 8 (CXCL8) (Shenandoah Biotechnology, Inc.) were used. Specific operations are as follows. A solution of various antigens diluted to 5 μg/mL with PBS was added to each well of a 96-well plate (Nunc), and the plate was incubated at 4° C. overnight. After removing the solution from each well, 1% BSA/PBS was added, and the plate was incubated at room temperature for 3 hours. The solution was removed from each well, and then the plate washed three times with PBST. An antibody solution was added to each well, and the plate was incubated at room temperature for 15 minutes. The solution was removed from each well, and then the plate washed three times with PBST. A solution of HRP-labeled anti-human IgG Fc antibody (Bethyl Laboratories, Inc.), HRP-labeled goat F(ab′)2 fragment anti-mouse IgG (H+L) (Beckman Coulter, Inc.) or HRP-conjugated streptavidin (Thermo Fisher Scientific Inc.) diluted to 0.3 μg/mL with 1% BSA/PBS was added to each well, and the plate was incubated at room temperature for 1 hour. The solution was removed from each well, and then the plate washed three times with PBST. Chromogenic reaction was performed using KPL TMB (registered trademark) Peroxidase Substrate (SeraCare Life Sciences, Inc.) and the chromogenic reaction was stopped using KPL TMB (registered trademark) Peroxidase Stop Solution (SeraCare Life Sciences, Inc.). Absorbance at 450 nm was measured using a SpectraMax (registered trademark) 190 microplate reader (Molecular Devices, LLC).

[2] = molecular target: T2, recombinant human ErbB2/Her2 Fc chimera (R&D Systems Inc.) (human, UniProt P04626 23-652); experiment: ELISA, antigen coated at 5 ug/mL, biotin-labeled antibody, HRP-streptavidin
T2 construct: Bought reagent, coated on the ELISA plate; also called antigen of trastuzumab; Fc part of the bought chimera not given
Description: as §1

[3] = molecular target: T3, interleukin 8 (CXCL8) (Shenandoah Biotechnology, Inc.) (UniProt P10145 28-99, limits assumed); experiment: ELISA, antigen coated at 5 ug/mL, HRP anti-human IgG Fc detection
T3 construct: Bought reagent, coated on the ELISA plate; also called IL-8
T3 sequence (looked up): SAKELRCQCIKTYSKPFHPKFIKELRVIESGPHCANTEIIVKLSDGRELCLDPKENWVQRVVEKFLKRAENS
Description: as §1

[4] = molecular target: T4, human CD20/MS4A1 full-length protein, His tag (HEK293) (ACROBiosystems Inc.) (human, UniProt P11836 1-297); experiment: as above
T4 construct: mature; Bought reagent, coated on the ELISA plate; also called antigen of rituximab; not shown: His tag
T4 sequence (looked up): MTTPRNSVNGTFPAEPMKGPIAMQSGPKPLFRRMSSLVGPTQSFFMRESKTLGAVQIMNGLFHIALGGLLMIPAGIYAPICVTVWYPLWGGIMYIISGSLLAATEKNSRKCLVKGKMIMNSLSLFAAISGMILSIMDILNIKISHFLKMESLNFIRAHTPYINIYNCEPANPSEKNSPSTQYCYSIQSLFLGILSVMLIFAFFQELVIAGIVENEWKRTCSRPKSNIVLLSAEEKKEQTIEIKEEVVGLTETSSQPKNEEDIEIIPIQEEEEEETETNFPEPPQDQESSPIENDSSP
Description: as §1

B1: anti-IL-6 antibody (mouse/human chimeric antibody), light chain FR3 not substituted (antibody, human IgG1, kappa, V domains shown)
VH: EVQLQQSGPELVKPGASVKMSCKASGYTFTSYVMHWVKQKPGQGLEWIGYINPYNDGTKYNEKFKGKATLTSDKSSSTAYMELSSLTSEDSAVYYCAREGYGNLERDCWGQGTSVTVSS
VL: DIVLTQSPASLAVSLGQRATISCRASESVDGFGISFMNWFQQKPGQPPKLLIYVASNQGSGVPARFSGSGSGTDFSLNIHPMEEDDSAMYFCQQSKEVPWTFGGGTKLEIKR
notes: also called WT; anti-interleukin (IL)-6 antibody
Question: How did the EC50 [1] turn out when B1 was run?
Answer: 0.041 µg/mL

Question: What about the EC50 ratio [1] of the same binder?
Answer: 1 ratio (EC50 in WT taken as 1.0)

B2: R5 variant of anti-IL-6 antibody (antibody, human IgG1, kappa, V domains shown)
VH: EVQLQQSGPELVKPGASVKMSCKASGYTFTSYVMHWVKQKPGQGLEWIGYINPYNDGTKYNEKFKGKATLTSDKSSSTAYMELSSLTSEDSAVYYCAREGYGNLERDCWGQGTSVTVSS
VL: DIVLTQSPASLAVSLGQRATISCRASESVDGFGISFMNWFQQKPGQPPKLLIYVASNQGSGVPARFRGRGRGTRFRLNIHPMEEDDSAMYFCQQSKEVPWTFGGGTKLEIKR
notes: IgG; Light chain positions 63, 65, 67, 70 and 72 (Chothia) are arginine; also called anti-IL-6 antibody R5
Question: For B2, which EC50 [1] is on record?
Answer: 0.0327 µg/mL

Question: And the EC50 ratio [1]?
Answer: 1.3 ratio (EC50 in WT taken as 1.0)

B3: R3 variant of trastuzumab (antibody, human IgG1, kappa, V domains shown)
VH: not shown
VL: DIQMTQSPSSLSASVGDRVTITCRASQDVNTAVAWYQQKPGKAPKLLIYSASFLYSGVPSRFSGRRRGTRFTLTISSLQPEDFATYYCQQHYTTPPTFGQGTKVEIKR
notes: IgG; Light chain positions 65, 67 and 70 (Chothia) are arginine; Labeled with biotin (Biotin Labeling Kit-NH2) before the ELISA; also called trastuzumab R3
Question: What does the source list for B3?
Answer: EC50 [2]: 0.0252 µg/mL; EC50 ratio [2]: 2 ratio (EC50 in WT taken as 1.0)

B4: R4 variant of trastuzumab (antibody, human IgG1, kappa, V domains shown)
VH: not shown
VL: DIQMTQSPSSLSASVGDRVTITCRASQDVNTAVAWYQQKPGKAPKLLIYSASFLYSGVPSRFRGRRRGTRFTLTISSLQPEDFATYYCQQHYTTPPTFGQGTKVEIKR
notes: IgG; Light chain positions 63, 65, 67 and 70 (Chothia) are arginine; Labeled with biotin (Biotin Labeling Kit-NH2) before the ELISA; also called trastuzumab R4
Question: Which EC50 [2] does the source give for B4 here?
Answer: 0.0342 µg/mL

Question: And the EC50 ratio [2]?
Answer: 1.5 ratio (EC50 in WT taken as 1.0)

B5: R3 variant of anti-IL-8 antibody (antibody, human IgG1, kappa, V domains shown)
VH: EVKLVESGGGLVKPGGSLKLSCAASGFTFNNYAMSWVRQTPEKRLEWVASISSGGNTYYPDSVKGRFTLSRDNARNILYLQMSRLRSEDTAMYYCARDKLRLPNWYFDVWGAGTTVTVSS
VL: DIVLTQSPPSLAVSLGQRATISCKASQSVDYDGDSYMNWYQQKPGQPPKVLIYGASNLESGIPARFRGRGRGTDFTLNIYPVEEEDAATYYCQQSNEDPPTFGGGTKLEIKR
notes: IgG; Light chain positions 63, 65 and 67 (Chothia) are arginine; also called anti-IL-8 antibody R3
Question: What does the source list for B5?
Answer: EC50 [3]: 0.269 µg/mL; EC50 ratio [3]: 1.4 ratio (EC50 in WT taken as 1.0)

B6: R4 variant of anti-IL-8 antibody (antibody, human IgG1, kappa, V domains shown)
VH: EVKLVESGGGLVKPGGSLKLSCAASGFTFNNYAMSWVRQTPEKRLEWVASISSGGNTYYPDSVKGRFTLSRDNARNILYLQMSRLRSEDTAMYYCARDKLRLPNWYFDVWGAGTTVTVSS
VL: DIVLTQSPPSLAVSLGQRATISCKASQSVDYDGDSYMNWYQQKPGQPPKVLIYGASNLESGIPARFRGRGRGTRFTLNIYPVEEEDAATYYCQQSNEDPPTFGGGTKLEIKR
notes: IgG; Light chain positions 63, 65, 67 and 70 (Chothia) are arginine; also called anti-IL-8 antibody R4
Question: What does the source list for B6?
Answer: EC50 [3]: 0.0598 µg/mL; EC50 ratio [3]: 6.5 ratio (EC50 in WT taken as 1.0)

B7: anti-IL-8 antibody (mouse/human chimeric antibody), light chain FR3 not substituted (antibody, human IgG1, kappa, V domains shown)
VH: EVKLVESGGGLVKPGGSLKLSCAASGFTFNNYAMSWVRQTPEKRLEWVASISSGGNTYYPDSVKGRFTLSRDNARNILYLQMSRLRSEDTAMYYCARDKLRLPNWYFDVWGAGTTVTVSS
VL: DIVLTQSPPSLAVSLGQRATISCKASQSVDYDGDSYMNWYQQKPGQPPKVLIYGASNLESGIPARFSGSGSGTDFTLNIYPVEEEDAATYYCQQSNEDPPTFGGGTKLEIKR
notes: also called WT; anti-IL-8 antibody WT
Question: Which EC50 [3] does the source give for B7 here?
Answer: 0.39 µg/mL

Question: And the EC50 ratio [3]?
Answer: 1 ratio (EC50 in WT taken as 1.0)

B8: R3 variant of rituximab (antibody, human IgG1, kappa, V domains shown)
VH: QVQLQQPGAELVKPGASVKMSCKASGYTFTSYNMHWVKQTPGRGLEWIGAIYPGNGDTSYNQKFKGKATLTADKSSSTAYMQLSSLTSEDSAVYYCARSTYYGGDWYFNVWGAGTTVTVSA
VL: QIVLSQSPAILSASPGEKVTMTCRASSSVSYIHWFQQKPGSSPKPWIYATSNLASGVPVRFRGRGRGTSYSLTISRVEAEDAATYYCQQWTSNPPTFGGGTKLEIKR
notes: IgG; Light chain positions 63, 65 and 67 (Chothia) are arginine; Heavy chain is that of rituximab; also called rituximab R3
Question: Which results are given for B8?
Answer: EC50 [4]: 1.71 µg/mL; EC50 ratio [4]: 74.6 ratio (EC50 in WT taken as 1.0)

B9: rituximab (mouse/human chimeric antibody), light chain FR3 not substituted (antibody, human IgG1, kappa, V domains shown)
VH: QVQLQQPGAELVKPGASVKMSCKASGYTFTSYNMHWVKQTPGRGLEWIGAIYPGNGDTSYNQKFKGKATLTADKSSSTAYMQLSSLTSEDSAVYYCARSTYYGGDWYFNVWGAGTTVTVSA
VL: QIVLSQSPAILSASPGEKVTMTCRASSSVSYIHWFQQKPGSSPKPWIYATSNLASGVPVRFSGSGSGTSYSLTISRVEAEDAATYYCQQWTSNPPTFGGGTKLEIKR
notes: also called WT; rituximab WT
Question: B9 was tested. Which EC50 [4] did it give?
Answer: 127 µg/mL

B10: R5 variant of rituximab (antibody, human IgG1, kappa, V domains shown)
VH: QVQLQQPGAELVKPGASVKMSCKASGYTFTSYNMHWVKQTPGRGLEWIGAIYPGNGDTSYNQKFKGKATLTADKSSSTAYMQLSSLTSEDSAVYYCARSTYYGGDWYFNVWGAGTTVTVSA
VL: QIVLSQSPAILSASPGEKVTMTCRASSSVSYIHWFQQKPGSSPKPWIYATSNLASGVPVRFRGRGRGTRYRLTISRVEAEDAATYYCQQWTSNPPTFGGGTKLEIKR
notes: IgG; Light chain positions 63, 65, 67, 70 and 72 (Chothia) are arginine; also called rituximab R5
Question: What does the source list for B10?
Answer: EC50 [4]: 0.027 µg/mL; EC50 ratio [4]: 4710 ratio (EC50 in WT taken as 1.0)

— patent US20230203435A1 (SYSMEX, published 2023)
